Source: the RNAGym collection of RNA variant scans (doi:10.7554/elife.90254)

B1: LINE1-full (parent)
chain: UACGUAGGUGGUUUUCCCCUGAUAGUGCUAAGGGGGCCUGGAAGUUUGGACUGGGCAGAGCUCAACACAGCGUGGCAAAGUGGCUGUGGCUAGACUGCCUCUCUGGAUUCCUCGUCACUCAGCAGGGCAUCUCUGAGAGAAAUGCC

Variants of: B1
Experiment: self-cleavage, relative activity (ratio to wild type); higher = more cleavage; in vitro, sequencing; the parent is a self-cleaving ribozyme

| Variant | self-cleavage |
| --- | --- |
| G89A U112C | 0.05 |
| U87C U119C | 0.24 |
| U87C U119G | 0 |
| U87C U119A | 0.19 |
| C90G U102C | 0.01 |
| U91C U96A | 0.08 |
| U91C G137A | 1.14 |
| U87G A117G | 0 |
| U91C C98A | 0.06 |
| G88A U104C | 0.15 |
| U87C C110A | 0.06 |
| G89A A140G | 0.06 |
| A92G A138U | 0.11 |
| U87C U91G | 0.08 |
| A92C U112C | 0.18 |
| A92G A124G | 0.04 |
| U87G U112C | 0.05 |
| U85C U112A | 0.19 |
| U85C U112C | 0.18 |
| G89A U132C | 0.06 |
| G86U U100C | 0.16 |
| C90U U100A | 0.04 |
| G88A U91C | 0.05 |
| G89A A121G | 0.09 |

| Variant | self-cleavage |
| --- | --- |
| A92G C118U | 0.07 |
| U91C G125A | 0.32 |
| U91G C146U | 0.1 |
| G88C A129G | 0.12 |
| U91C U119G | 1.53 |
| U91C U119A | 0.48 |
| U91G U119C | 0 |
| U91A U130C | 0.79 |
| G86U A129U | 0.09 |
| U87A C131U | 0.08 |
| U85G U132C | 0.14 |
| U85G | 0.13 |
| A92G G127A | 0.12 |
| A92G G97C | 0.06 |
| A92G U96C | 0.25 |
| U91C A121G | 1.29 |
| U87A U115G | 0.13 |
| U87A U100C | 0.09 |
| U85C U108C | 0.22 |
| U87C G122U | 0.3 |
| G89U A124G | 0.16 |
| U91G A141G | 0.06 |
| C90A A117C | 0.05 |
| U85C U100C | 0.28 |

| Variant | self-cleavage |
| --- | --- |
| U87G A107G | 0 |
| G86A A124G | 0.02 |
| G86A A140G | 0.03 |
| G88A U143A | 0.07 |
| U91A U104A | 0.46 |
| U91A U143A | 0.52 |
| U87C U134C | 0.11 |
| U87C U134G | 0.31 |
| U91C U143C | 0.78 |
| U91C U143G | 0.62 |
| U91C U143A | 0.72 |
| U85G U109C | 0 |
| G88A C110U | 0.04 |
| G89A C133U | 0.03 |
| U91C U112A | 0.42 |
| G86A U91C | 0.07 |
| C90U A138G | 0.04 |
| U87A A92G | 0.13 |
| G86A U87C | 0.04 |
| G89A U143A | 0.05 |
| G88A A117G | 0.07 |
| U87A C113A | 0.06 |
| G89A G137A | 0.05 |
| C90U G93U | 0.04 |

| Variant | self-cleavage |
| --- | --- |
| A92C A142G | 0.33 |
| U91C C113A | 0.82 |
| A92C A121U | 0.05 |
| U87G A129G | 0.27 |
| A92C C113U | 0.14 |
| U87C C146A | 0.2 |
| U85C U91C | 0.06 |
| U87C U109A | 0.15 |
| U87C U109C | 0.27 |
| C90U U108G | 0.09 |
| C90G A142G | 0.05 |
| U91A U112C | 0.58 |
| G86A U112A | 0.08 |
| U91A A117U | 0.6 |
| U85C U109A | 0.12 |
| U85C U109C | 0.17 |
| C90A U96C | 0.04 |
| U85C U96A | 0.07 |
| U85C U96C | 0.2 |
| U87A U96C | 0.12 |
| U87A U96A | 0.07 |
| U85C G93U | 0.06 |
| U87G A121U | 0.2 |
| U87G U130C | 0.41 |

| Variant | self-cleavage |
| --- | --- |
| U91A G144A | 0.88 |
| C90A | 0.04 |
| C90U | 0.03 |
| C90G | 0.03 |
| G86A A141U | 0.13 |
| U85C U115C | 0.21 |
| U91A A124U | 0.48 |
| U91C A129U | 0.82 |
| G88A C120U | 0.09 |
| U87G A140G | 0.19 |
| U87A G126U | 0.08 |
| G86A U134C | 0.08 |
| U91C G144A | 0.47 |
| U91A U108C | 0.73 |
| U87A G88C | 0.08 |
| C90U U115C | 0.06 |
| U91C G122A | 0.29 |
| U87A U109A | 0.08 |
| U91A A140G | 0.45 |
| U87C A142G | 0.25 |
| A92G C146U | 0.07 |
| U91A A138G | 0.84 |
| C90A A141G | 0.03 |
| U87C G137A | 0.5 |

| Variant | self-cleavage |
| --- | --- |
| U87C G137U | 0.27 |
| G89U G125A | 0.05 |
| U85C G89A | 0.03 |
| U87C A94U | 0.05 |
| U87C A94G | 0.14 |
| A92G C113U | 0.1 |
| C90U U112C | 0.03 |
| C90U U112A | 0.04 |
| C90U U130C | 0.04 |
| G88A A107C | 0.03 |
| U85G A140G | 0.19 |
| A92G A107U | 0.09 |
| G88A G114A | 0.08 |
| G88A U100A | 0.07 |
| G86A G127C | 0.09 |
| C90U A107G | 0.03 |
| G88C G125C | 0.06 |
| G89C G122C | 0.02 |
| U87A A129U | 0.08 |
| U87A A138G | 0.07 |
| A92G C128A | 0.04 |
| A92G C128U | 0.03 |
| G88A U134C | 0.08 |
| G88A U134A | 0.06 |

| Variant | self-cleavage |
| --- | --- |
| A92G A94U | 0.05 |
| G89U U134G | 0.04 |
| U87G A141G | 0 |
| U87C U143A | 0.22 |
| U87C U143C | 0.21 |
| A92G A129U | 0.17 |
| G88A U96C | 0.02 |
| U91A A129U | 0.86 |
| C90U U134G | 0.04 |
| C90A A107G | 0.04 |
| C90A A107U | 0.03 |
| U91A A142G | 0.63 |
| G88C A140G | 0 |
| U87C U102A | 0.12 |
| U85C G105U | 0.14 |
| U85C G139A | 0.2 |
| U91A U100C | 0.96 |
| A92C | 0.13 |
| A92G | 0.1 |
| G86A U109G | 0.07 |
| G89A A107G | 0.01 |
| A92G A141G | 0.12 |
| A92C U102C | 0.14 |
